The record followed here is US20250257133A1 (ADAGENE PTE, published 2025).

Numbering of substitutions follows the chain as printed. Numbers in names are those of the source. Where two headings read alike, the source gives them in different places.

Broadly, the EC50 is the concentration at which the effect is half-maximal. The term Kd denotes a measure of binding affinity in units of concentration. One may read the koff as the rate constant with which the complex falls apart. A word on the kon: it is the rate constant with which the complex forms.

In one experiment the target is T1, Mouse CD28 on cells (mouse, UniProt P31041 20-218).
T1 construct: also called CD28 on mouse T cells
T1 sequence (P31041 20-218 limits assumed): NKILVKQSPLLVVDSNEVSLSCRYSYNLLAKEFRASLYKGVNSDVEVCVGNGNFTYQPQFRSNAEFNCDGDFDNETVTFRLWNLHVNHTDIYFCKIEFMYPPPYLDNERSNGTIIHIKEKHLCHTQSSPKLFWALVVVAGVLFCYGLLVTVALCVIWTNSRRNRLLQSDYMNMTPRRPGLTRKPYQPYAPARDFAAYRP
The experiment can be described thus: flow cytometry on mouse T cells, median fluorescence intensity; drawn table. More on the design: AUC: unit not given beside the values. A general note: In flow cytometry, cells or beads pass a laser one at a time.

Experiment [1] concerns the target T2, Human CD28 (ELISAs of Examples 4 and 13) (human, UniProt P10747 19-152, limits assumed). The experiment can be described thus: ELISA. Background: ELISA stands for enzyme-linked immunosorbent assay.
The target of experiment [2] is Mouse CD28 (ELISA of Example 13) (mouse, UniProt P31041 20-150, limits assumed). The experiment can be described thus: ELISA.
Mouse CD28 (ELISA of Example 13), sequence (P31041 20-150 limits assumed): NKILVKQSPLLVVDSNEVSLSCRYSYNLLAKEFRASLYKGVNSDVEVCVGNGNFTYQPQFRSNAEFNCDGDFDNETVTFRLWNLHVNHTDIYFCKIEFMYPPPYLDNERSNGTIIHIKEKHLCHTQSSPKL
The target of experiment [3] is T2, Human CD28 (ELISAs of Examples 4 and 13). The experiment can be described thus: ELISA. The source holds these as a separate data set.
For the next experiment, the target named is T3, B7H3 on MDA-MB-231 cells (UniProt Q5ZPR3 29-534, limits assumed).
T3 construct: whole, on cells
T3 sequence (looked up): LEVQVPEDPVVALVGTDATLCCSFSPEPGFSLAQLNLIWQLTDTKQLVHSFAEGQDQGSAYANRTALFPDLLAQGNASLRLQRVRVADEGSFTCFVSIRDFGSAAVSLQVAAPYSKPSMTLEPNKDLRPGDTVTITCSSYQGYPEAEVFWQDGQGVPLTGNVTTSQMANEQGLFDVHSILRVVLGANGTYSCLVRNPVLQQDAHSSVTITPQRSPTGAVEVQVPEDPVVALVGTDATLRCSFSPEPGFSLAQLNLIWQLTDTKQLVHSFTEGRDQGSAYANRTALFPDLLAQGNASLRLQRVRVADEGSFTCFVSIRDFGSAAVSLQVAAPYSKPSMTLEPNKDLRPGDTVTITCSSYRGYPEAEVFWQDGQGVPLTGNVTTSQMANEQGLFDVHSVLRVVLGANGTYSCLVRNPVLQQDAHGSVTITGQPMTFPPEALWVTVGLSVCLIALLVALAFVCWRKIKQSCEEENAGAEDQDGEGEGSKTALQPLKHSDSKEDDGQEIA
Kind of experiment: flow cytometry, MDA-MB-231 cells.

The next experiment has as its target T4, Human CD28 on cells (human, UniProt P10747 19-220).
T4 construct: Jurkat E6-1 cells, primary human T cells, or transfected HEK293F cells; also called CD28 on Jurkat cells; CD28 on human CD3+ T cells
The experiment can be described thus: flow cytometry, Jurkat cells.

For experiment [4], the target named is T5, His-tagged human CTLA4 protein (human, UniProt P16410 36-161, limits assumed).
T5 construct: not shown: His tag
T5 sequence (P16410 36-161 limits assumed): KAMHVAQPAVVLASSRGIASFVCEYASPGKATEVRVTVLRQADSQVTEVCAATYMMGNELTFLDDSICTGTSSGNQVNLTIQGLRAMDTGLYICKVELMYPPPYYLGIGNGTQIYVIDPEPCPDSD
Kind of experiment: Octet BLI, mAb captured. On the technique in general: BLI is a label-free optical method that tracks binding on a fibre tip over time.

The target in experiment [5] is T6, His-tagged human CD28 protein (human, UniProt P10747 19-152).
T6 construct: not shown: His tag
The experiment can be described thus: Octet BLI, mAb captured.
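For Kd in this document: Anti-human Fc biosensors captured the antibodies, then His-tagged protein analytes at 100 nM associated for 300 s and dissociated for 300 s, fitted by a 1:1 Langmuir model.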
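For koff in this document: Anti-human Fc biosensors captured the antibodies, then His-tagged protein analytes at 100 nM associated for 300 s and dissociated for 300 s, fitted by a 1:1 Langmuir model.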
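For kon in this document: Anti-human Fc biosensors captured the antibodies, then His-tagged protein analytes at 100 nM associated for 300 s and dissociated for 300 s, fitted by a 1:1 Langmuir model.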

Method for B7H3 on MDA-MB-231 cells: An isotype antibody was included as a negative control.
MDA-MB-231 cells were cultured and seeded in 96-well plates at 1.0×10⁵ cells/well and incubated with serially diluted test BsAbs for 60 minutes at 4° C. in 2% FBS/RPMI1640 buffer. Next, the cells were washed twice with DPBS and further incubated with secondary APC-anti-human IgG Fe antibody (1:400 dilution) for 30 minutes at 4° C. Finally, the cells were washed twice with DPBS and resuspended in FACS buffer for flow cytometry analysis. For analysis, the MFI values versus concentrations were plotted using FlowJo 10 software (FlowJo LLC) and the data were further fitted with four-parameter non-linear regression to obtain EC₅₀ values by GraphPad Prism version 7 for Windows.

B1: TY30120 (bispecific antibody, human IgG1, kappa, N297A)
light: DIQLTQSPSSLSASVGDRVTITCRASQSIRKYLNWYQQKPGKAPKLLIYAASTLQSGVPSRFSGSGSGTDFTLTISSLQPEDFATYFCSQGTHVPFTFGQGTKVEIKRTVAAPSVFIFPPSDEQLKSGTASVVCLLNNFYPREAKVQWKVDNALQSGNSQESVTEQDSKDSTYSLSSTLTLSKADYEKHKVYACEVTHQGLSSPVTKSFNRGEC
heavy: EVQLVESGGGLVQPGGSLRLSCAASGFTFSGYGIHWVRQAPGKGLEWIGWISPSGGDTKYAQKFQGRVTISRDNSKNTLYLQLNSLRAEDTAVYYCARGGTVVYFDYWGQGTLVTVSSASTKGPSVFPLAPSSKSTSGGTAALGCLVKDYFPEPVTVSWNSGALTSGVHTFPAVLQSSGLYSLSSVVTVPSSSLGTQTYICNVNHKPSNTKVDKKVEPKSCDKTHTCPPCPAPELLGGPSVFLFPPKPKDTLMISRTPEVTCVVVDVSHEDPEVKFNWYVDGVEVHNAKTKPREEQYASTYRVVSVLTVLHQDWLNGKEYKCKVSNKALPAPIEKTISKAKGQPREPQVYTLPPSRKKLTKNQVKLTCLVKGFYPSDIAVEWESNGQPENNYKTTPPVLDCDGSFFLYSKLTVDKSRWQQGNVFSCSVMHEALHNHYTQKSLSLSPGK
chain: EVQLVESGGGLVQPGGSLRLSCAASGFSLSTSGVGVSWIRQAPGKGLEWIGEIYHSGSTYYSPSLKSRVTISRDNSKNTLYLQLNSLRAEDTAVYYCARYGYYYYDFDYWGQGTLVTVSSGGGGSGGGGSGGGGSGGGGSDIQLTQSPSSLSASVGDRVTITCRASQSVDFHGISFLHWYQQKPGKAPKLLIYAASSLQSGVPSRFSGSGSGTDFTLTISSLQPEDFATYYCQQSYRSPRTFGQGTKVEIKEPKSSDKTHTCPPCPAPELLGGPSVFLFPPKPKDTLMISRTPEVTCVVVDVSHEDPEVKFNWYVDGVEVHNAKTKPREEQYASTYRVVSVLTVLHQDWLNGKEYKCKVSNKALPAPIEKTISKAKGQPREPQVYTDPPSRDELTKNQVSLTCLVDGFYPSDIAVEWESNGQPENCYKTTPPVLDSDGSFFLYSKLTVDKSRWQQGNVFSCSVMHEALHNHYTQDSLSLSPGK
notes: anti-B7H3 Fab x CD28 scFv BC10599 (VH-VL)-Fc
Regarding B1, in the experiment with Mouse CD28 on cells, the AUC worked out at 4380, the EC50 was 145 nM and the “Max MFI” value is 2710. It took 3.03 nM to reach a half-maximal effect in experiment [1] (EC50). Besides, the response in experiment [2] was half-maximal at 74.2 nM (EC50).

B2: TY29815 (bispecific antibody, human IgG1, kappa, N297A)
light: DIQLTQSPSSLSASVGDRVTITCRASQSIPSFLNWYQQKPGKAPKLLIYAASSLQSGVPSRFSGSGSGTDFTLTISSLQPEDFATYYCQHYISWPRQFTFGQGTKVEIKRTVAAPSVFIFPPSDEQLKSGTASVVCLLNNFYPREAKVQWKVDNALQSGNSQESVTEQDSKDSTYSLSSTLTLSKADYEKHKVYACEVTHQGLSSPVTKSFNRGEC
heavy: EVQLVESGGGLVQPGGSLRLSCAASGYSISSGYYWGWIRQAPGKGLEWIGIIYPSGGGTNYAQKFQGRVTISRDNSKNTLYLQLNSLRAEDTAVYYCARGGGLGFDYWGQGTLVTVSSASTKGPSVFPLAPSSKSTSGGTAALGCLVKDYFPEPVTVSWNSGALTSGVHTFPAVLQSSGLYSLSSVVTVPSSSLGTQTYICNVNHKPSNTKVDKKVEPKSCDKTHTCPPCPAPELLGGPSVFLFPPKPKDTLMISRTPEVTCVVVDVSHEDPEVKFNWYVDGVEVHNAKTKPREEQYASTYRVVSVLTVLHQDWLNGKEYKCKVSNKALPAPIEKTISKAKGQPREPQVYTLPPSRKKLTKNQVKLTCLVKGFYPSDIAVEWESNGQPENNYKTTPPVLDCDGSFFLYSKLTVDKSRWQQGNVFSCSVMHEALHNHYTQKSLSLSPGK
chain: B1 chain with S32G, G101E
notes: also called TY29815 (WT); wild type anti-PD-L1xCD28 bsAb
As for B2, the EC50 in experiment [3] is 22.3 nM.

B3: TY27556 (bispecific antibody, human IgG1, kappa, N297A)
light: B1 light
heavy: B1 heavy
chain: DIQLTQSPSSLSASVGDRVTITCRASQSVDFHGISFLHWYQQKPGKAPKLLIYAASSLQSGVPSRFSGSGSGTDFTLTISSLQPEDFATYYCQQSYRSPRTFGQGTKVEIKGGGGSGGGGSGGGGSGGGGSEVQLVESGGGLVQPGGSLRLSCAASGFSLSTGGVGVSWIRQAPGKGLEWIGEIYHSGSTYYSPSLKSRVTISRDNSKNTLYLQLNSLRAEDTAVYYCARYEYYYYDFDYWGQGTLVTVSSEPKSSDKTHTCPPCPAPELLGGPSVFLFPPKPKDTLMISRTPEVTCVVVDVSHEDPEVKFNWYVDGVEVHNAKTKPREEQYASTYRVVSVLTVLHQDWLNGKEYKCKVSNKALPAPIEKTISKAKGQPREPQVYTDPPSRDELTKNQVSLTCLVDGFYPSDIAVEWESNGQPENCYKTTPPVLDSDGSFFLYSKLTVDKSRWQQGNVFSCSVMHEALHNHYTQDSLSLSPGK
notes: also called anti-B7H3xCD28 BsAb
With B3, in the experiment with B7H3 on MDA-MB-231 cells, the EC50 turned out to be 12.8 nM and the “fold reduction of binding activity against TY21601” value is roughly 28 fold.

B4: TY29021 (bispecific antibody, human IgG1, kappa, N297A)
light: B1 light
heavy: B1 heavy
chain: B1 chain with S32G, G101E
notes: anti-B7H3 Fab x CD28 scFv WT (VH-VL)-Fc; also called TY29021 (WT)
B4: in the experiment with Mouse CD28 on cells, the AUC turned out to be 549 and the “Max MFI” value came to 364. Also, in experiment [1], the EC50 was determined as 36.4 nM.

B5: TY30121 (bispecific antibody, human IgG1, kappa, N297A)
light: B1 light
heavy: B1 heavy
chain: B1 chain with S37G, S62N, G101K, Y103D
notes: anti-B7H3 Fab x CD28 scFv BC10601 (VH-VL)-Fc
B5: in the experiment with Mouse CD28 on cells, the AUC worked out at 4620, the EC50 came to 142 nM and the “Max MFI” value amounted to 2860. For the same molecule, the EC50 in experiment [1] was found to be 5.73 nM. The same molecule showed an EC50 in experiment [2] of 108 nM.

B6: TY30413 (bispecific antibody, human IgG1, kappa, N297A)
light: B2 light
heavy: B2 heavy
chain: B1 chain with S32G, G101E, Y104H
notes: anti-PD-L1 Fab x CD28 scFv VH-VL (YYHY)-Fc
In experiment [3], B6 gave a 50% effective concentration (EC50) of 26.8 nM.

B7: TY30123 (bispecific antibody, human IgG1, kappa, N297A)
light: B1 light
heavy: B1 heavy
chain: B1 chain with S32G, S37G
notes: anti-B7H3 Fab x CD28 scFv BC10621 (VH-VL)-Fc
As to B7, in the experiment with Mouse CD28 on cells, the AUC was 3820, the EC50 was determined as 76.2 nM and the “Max MFI” value was 1980. The EC50 in experiment [1] came out at 3.59 nM. In experiment [2], the EC50 was 96.4 nM.

B8: TY24773 (antibody, human IgG4 S228P, kappa, V domains shown)
VH: EVQLVESGGGLVQPGGSLRLSCAASGYSISSGYHWGWIRQAPGKGLEWIGEIYHSGSTYYSPSLKSRVTISRDNSKNTLYLQLNSLRAEDTAVYYCARKDYYYALDYWGQGTLVTVSS
VL: DIQLTQSPSSLSASVGDRVTITCRASQSVDFYGKSFLHWYQQKPGKAPKLLIYAASTLQSGVPSRFSGSGSGTDFTLTISSLQPEDFATYYCQQSYRTPLTFGQGTKVEIKR
notes: hIgG4/S241P
Turning to B8, in the experiment with Human CD28 on cells, the half-maximal effective concentration (EC50) was 0.71 nM. Also, in experiment [4], the binding result is “no binding (tested: 100 nM CTLA4)”. In experiment [5], this molecule returned a Kd of 8.29 nM, an off-rate constant (koff) of 0.000319 s⁻¹ and a kon of 38500 M⁻¹ s⁻¹.

B9: TY21601 (antibody, V domains shown)
VH: EVQLVESGGGLVQPGGSLRLSCAASGFTFSGYGIHWVRQAPGKGLEWIGWISPSGGDTKYAQKFQGRVTISRDNSKNTLYLQLNSLRAEDTAVYYCARGGTVVYFDYWGQGTLVTVSS
VL: DIQLTQSPSSLSASVGDRVTITCRASQSIRKYLNWYQQKPGKAPKLLIYAASTLQSGVPSRFSGSGSGTDFTLTISSLQPEDFATYFCSQGTHVPFTFGQGTKVEIK
notes: also called parental anti-B7H3 mAb; B7H3 IgG
With B9, in the experiment with B7H3 on MDA-MB-231 cells, a half-maximal effect (EC50) was put at 0.453 nM.
